Our source for the amyloid nucleation score values is the supplement of paper PMC12042874.

± gives the uncertainty stated by the source.

A short description of this series: amyloid nucleation score (Sup35N fusion, yeast selection) (log enrichment); library NNK3; higher = more nucleation; inactive = no reads after selection. Put shortly: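 In psi-negative yeast, Sup35N fusions carrying peptides of 20 random codons were induced with 100 μM copper sulfate for 24 hours. The cells then grew 7 days at 30°C on medium lacking adenine and uracil, and plasmid inserts from input and output were Illumina-sequenced, excluding sequences with under 100 input reads. Nucleation score is the DiMSum log enrichment of output over input reads, centred on the mode score of non-aggregating sequences.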
As for VKTESEVLLSRMSTYSWENA, the amyloid nucleation score stood at 1.23 ± 0.17.
The result for VKVES reads -0.195 ± 1.1; that for VKVVNTSCPMDGLPNCLTRR, “inactive”; that for VLAKLVFKPYKKGVISQ, “inactive”.
The result for VLCDDTCYFADVSSWSWDWF reads “inactive”; that for VLCFI, “inactive”.
The result for VLCHKSKWNMH reads 0.322 ± 0.26; that for VLCLVAGDYMNELIGGKGKV, “inactive”.
For VLDRVKNRVFYLLVECQKLF, the amyloid nucleation score result was “inactive”.
The result for VLGNFSSFVAAKVARRS reads “inactive”; that for VLIDYYMMSTSN, “inactive”.
The result for VLILFVCPNFVLGSGVLIGW reads “inactive”; that for VLKESMLGISLLMGTLRW, 0.2 ± 0.56; that for VLLLTMEFGASDVFCWVVKY, “inactive”.
In the case of VLLMRNAVIYPGSGMSSSSA, the amyloid nucleation score entry is “inactive”.
The result for VLLPPGVE reads -0.23 ± 0.98; that for VLMMPPAFRRQSFNFRCVSQ, “inactive”.
The result for VLPRRTLACIKRTNKASETV reads “inactive”; that for VLSEESNYAKM, “inactive”; that for VLTVEMLHAWNCG, “inactive”.
The result for VLVIGMWKTFYNYMQILCQA reads “inactive”; that for VLVLS, “inactive”; that for VLVMISSWNYLMCIFFCINV, “inactive”.
For VLYCGHCFVFTRCSGWVQLG, the amyloid nucleation score entry was “inactive”.
The result for VLYVTKGVIFRCGCYNVGED reads 1.7 ± 0.11.
The result for VMCLPLPKFI reads “inactive”.
The result for VMCLRTFGASSFFI reads -0.023 ± 0.55.
With VMCVGYGTSRYSWVAFGLDK, the amyloid nucleation score result was “inactive”.
The result for VMFFDIKIMARFWTPNEL reads “inactive”.
The result for VMHNVM reads “inactive”.
The result for VMLCFTFSMLVLVGGQVCLY reads “inactive”; that for VMLHSRFGRFRDNVTL, “inactive”; that for VMLNLQI, 1.18 ± 0.17.
Take VMLRTFSA: the amyloid nucleation score entry is “inactive”.
The result for VMRFYQPSTASLYGSLASPR reads “inactive”; that for VNALKRTGK, “inactive”.
The result for VNATDRSVSFLHKGPALDSN reads “inactive”; that for VNEFNGDGGSQLRQKQNPLF, “inactive”.
The result for VNISVRQALHANYVGTCFVC reads 1.85 ± 0.084; that for VNKFNFNIVIFSNWNMYQ, 3.36 ± 0.062; that for VNKVDGLETMQYIFTCGSWM, 0.098 ± 0.23.
For the substance VNLDTSSGKT, the amyloid nucleation score entry was “inactive”.
The result for VNLPFNDKYHLVFIGMA reads “inactive”; that for VNPISWGHVIVTYQN, “inactive”; that for VNSLATRNFIGTLCVVSHKR, “inactive”.
The result for VNSLVSRQINFIEVRRSMRW reads 0.849 ± 0.23; that for VNVEFLASVFPWNISKKCEQ, “inactive”.
The result for VNWSSFIFESTSIFS reads 0.476 ± 0.28; that for VNYRN, “inactive”.
In the case of VNYYRCWLVSIRYYSLHDHL, the amyloid nucleation score worked out at 2.35 ± 0.055.
Take VPCMRNFDLYLKSVTDRLDK: the amyloid nucleation score result is “inactive”.
The result for VPGCA reads -0.075 ± 1.1; that for VPGDEHRDGKLGAKWWTCRR, “inactive”; that for VPGYAAMSPLLCYRGIPVQG, “inactive”.
The result for VPKAYR reads “inactive”; that for VPLIMSRGRRCRMLFKLPST, “inactive”.
The result for VPLPEGFHNRTSNCIFFINE reads 0.932 ± 0.12; that for VPSPTFIHVARRSRYHYASR, “inactive”; that for VQAYLCEYR, “inactive”.
VQGTILRSRQNCTL had an amyloid nucleation score of 0.308 ± 0.48.
The result for VQLSMPGFGDWCRIRWVTAG reads “inactive”; that for VRAMCLPHV, “inactive”; that for VRDCTSQLINDGNNLVPGMW, “inactive”.
The result for VRILLRFLVVFRLYLVFC reads “inactive”; that for VRLVGLCFYIAMSLPSSFFI, “inactive”.
The result for VRMMFSWPK reads 0.902 ± 0.24; that for VRPLRSVLFDVASNVIGSVG, “inactive”.
For VRSPPVPLNCVE, the amyloid nucleation score result was “inactive”.
The result for VRSRLGSGRDEKPRALSSCM reads “inactive”; that for VRTFEAVLCVPIRLDWVRDR, “inactive”.
The result for VRTNPGGFWLNLCQQTQKES reads “inactive”; that for VRTYNQCKSHVLDWLRNTYF, -0.295 ± 0.96.
The result for VRVSPLCIGRPALGQAIAVF reads “inactive”.
As for VRWSWSMFVVYNSVES, the amyloid nucleation score result is “inactive”.
VSCYSRYRVVVHRGSVVISR: the amyloid nucleation score result is “inactive”.
VSCYVTHISYRSSFGSMFYS: the amyloid nucleation score result is “inactive”.
The result for VSDCESMAN reads “inactive”; that for VSFLFDIW, 2.24 ± 0.06; that for VSFLMIYLSSNCSVSVRYHY, “inactive”.
The result for VSGMNSKLFYW reads “inactive”.
The result for VSGWFDWDFLDDNGQYWLHV reads “inactive”.
For VSIDSSFLHRSLLS, the amyloid nucleation score entry was “inactive”.
Substance VSIIVRYQL had an amyloid nucleation score of 1.93 ± 0.096.
VSITVFPFTLLITYLI: the amyloid nucleation score worked out at 0.165 ± 0.75.
The result for VSKVKSNPPYITDEIVFCRR reads “inactive”; that for VSLCIDRSMRCPRLVCVERG, “inactive”.
The result for VSLKEITKLYRSIWVFLWSS reads “inactive”.
Turning to VSLTFVVCRALFLSFTW, the amyloid nucleation score result is “inactive”.
The result for VSMSMRYQDASGVTSCFTSL reads “inactive”; that for VSNDLNFILYAPTNVVMSTY, 1.25 ± 0.14.
The result for VSNNVQVNQVMYFNTVICIV reads 2.69 ± 0.063; that for VSNVSGSIHWGNFCAMNIAV, “inactive”.
VSNYDLESS: the amyloid nucleation score result was “inactive”.
The result for VSSMGSV reads “inactive”.
The result for VSTRGITDMMLGDMAVVNVG reads “inactive”; that for VSTSPNIDSLRCFCIHVKRR, “inactive”.
The result for VSVCLVCAVIPRLLSMRCIV reads “inactive”.
VSVLMGAWDLMWMPGKS yielded an amyloid nucleation score of 1.08 ± 0.14.
The result for VSYVGLDSDICSFNWLSLLA reads “inactive”.
The result for VTAELNFITVNGYVE reads “inactive”; that for VTCNVSSYGTMKEKVAYEGS, -0.003 ± 0.88.
The result for VTFAARLTYKSILDILCMME reads “inactive”; that for VTFYFSYMCAKGTH, 0.53 ± 0.17.
Take VTGLEVRHQRHIWHNMGMIR: the amyloid nucleation score result was “inactive”.
Consider VTKAWMCYYLLLYVWDEGRA, for which the amyloid nucleation score entry is “inactive”.
The result for VTLTLEGLDRWVNQSEIAPS reads 0.071 ± 0.29.
The result for VTMFDLVSM reads “inactive”; that for VTMMLVMLFSQMFSFLAFVN, “inactive”.
For VTQYMYTT, the amyloid nucleation score result is “inactive”.
The result for VTRCCPMWD reads -0.702 ± 2.5; that for VTRFTYPRILLGRNVDWLSF, “inactive”.
The result for VTVSSWASYIIVNGKWRIKC reads “inactive”; that for VTWIYSSNGVWINGDKSFML, 1.22 ± 0.079.
The result for VVDYNKDQDGAMTASRGDRK reads -0.726 ± 1.5.
With VVERKGRSKKLVFVCLLILW, the amyloid nucleation score entry was “inactive”.
The result for VVGKFSTADILSFR reads “inactive”.
The result for VVHKNRLMKFHRFLILYSEG reads “inactive”.
For VVINHYMNHIAEHTDSLRGG, the amyloid nucleation score is 1.57 ± 0.075.
Turning to VVKNTW, the amyloid nucleation score result is “inactive”.
Regarding VVKYSSRCSKVRICLSRWVW, the amyloid nucleation score entry is “inactive”.
Turning to VVQSGRAFRCYRCSLEVQTE, the amyloid nucleation score entry is “inactive”.
The result for VVSAGIAFPWTGLS reads “inactive”; that for VVSLMDTPFD, “inactive”.
Substance VVSTNVYGGLTMASYCGALP showed an amyloid nucleation score of 1.24 ± 0.16.
Regarding VVTSRCLRKKLFLDLSVCIT, the amyloid nucleation score result is “inactive”.
The result for VVVIHE reads “inactive”; that for VVYIRWYIRLLRHNIVSILS, “inactive”.
The result for VWFNPLCYRNYGMETLVSTK reads “inactive”; that for VWIIEK, 1.99 ± 0.062.
The result for VWLCSLLQITFIYAEVTVSL reads “inactive”.
As to VWMVCSPSGIRLANSFVVDI, the amyloid nucleation score result was “inactive”.
The result for VWYDRSEGLARAHNLYSGSE reads “inactive”.
